Experimental data reported in patent publication US20230190868A1 (NATIONAL UNIVERSITY OF SINGAPORE, published 2023).

Target: T1, cell-surface GRP78 (csGRP78) on mouse alveolar macrophages (primary AMs; MH-S cells) (mouse, UniProt P20029 20-655)
T1 construct: whole, on cells; Endogenous protein on mouse cells; the species follows from the cells used; also called Glucose-Regulated Protein 78 kDa
Experiment: confocal immunofluorescence on non-permeabilized primary alveolar macrophages, 1 µM rISM1
Procedure: Cell-surface GRP78 (csGRP78) has been previously detected on mouse peritoneal macrophages (Misra, Gonzalez-Gronow et al., 2005) and human monocytes (Lu, Lai et al., 2010). Primary AMs were treated with recombinant ISM1 (rISM1) to determine if csGRP78 is present and serves as an ISM1 receptor on AMs. It was observed that rISM1 binds to csGRP78 on non-permeabilized AMs (FIG. 6C) and co-localized with GRP78 intracellularly (FIG. 6D), leading to AM apoptosis (FIG. 2K and FIG. 6E). Similarly, rISM1 induced apoptosis in immortalized mouse AM cells (MH-S) upon thapsigargin (TG) pretreatment (FIG. 6F), an ER stress inducer known to promote GRP78 translocation to the cell surface (Li, Ni et al., 2008). […] Increased AMs in Ism1^{Δ/Δ} lungs contributed towards protease-antiprotease imbalance, thus leading to spontaneous COPD in Ism1^{Δ/Δ} mice under ambient air.
(FIG. 6C). […] In FIG. 6C, representative confocal images of primary AMs for rISM1 (red) and GRP78 (green) co-localization after 1 µM rISM1 treatment for 1 hour are shown (Nuclei were stained with DAPI (blue)). Further, mouse AM cell line MH-S cells undergo ISM1 induced apoptosis when the cells were pre-treated with thapsigargin (TG), which induce ER stress and upregulate csGRP78. Denatured ISM1 (boiled) lost this pro-apoptotic function, indicating this pro-apoptotic activity is a function of the ISM1 protein. […]

T1 sequence (P20029 20-655): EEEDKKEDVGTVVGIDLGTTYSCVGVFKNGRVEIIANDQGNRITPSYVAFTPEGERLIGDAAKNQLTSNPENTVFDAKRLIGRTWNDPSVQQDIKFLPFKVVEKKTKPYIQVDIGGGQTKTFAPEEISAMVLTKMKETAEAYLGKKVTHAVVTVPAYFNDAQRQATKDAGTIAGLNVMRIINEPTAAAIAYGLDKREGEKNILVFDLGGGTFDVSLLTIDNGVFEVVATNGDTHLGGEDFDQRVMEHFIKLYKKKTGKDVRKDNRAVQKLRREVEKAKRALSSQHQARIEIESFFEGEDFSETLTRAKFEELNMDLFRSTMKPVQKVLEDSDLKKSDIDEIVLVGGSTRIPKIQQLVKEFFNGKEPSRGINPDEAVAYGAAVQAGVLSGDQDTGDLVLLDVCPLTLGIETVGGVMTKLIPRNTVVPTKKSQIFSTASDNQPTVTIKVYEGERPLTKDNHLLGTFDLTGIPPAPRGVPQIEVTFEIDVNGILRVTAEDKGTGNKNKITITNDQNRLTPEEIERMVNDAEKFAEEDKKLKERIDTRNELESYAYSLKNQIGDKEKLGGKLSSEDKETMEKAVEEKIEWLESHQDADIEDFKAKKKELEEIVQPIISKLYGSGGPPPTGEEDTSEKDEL

B1: recombinant ISM1 (rISM1), mouse mature form without signal peptide, 6xHis-tagged, expressed in E. coli (vector pET-M) (ligand)
chain: SDRQDAAAGNVSGSQLQNNLNLESDSTSETSFPLSKEAPEEHQVVHQPFPRQRFPPETGHPSLQRDGPRSFLLDLPNFPDLSKADINGQNPNIQVTIEVVDGPDSEAEKDQHPENKPSWSLPAPDWRAWWQRSLSLARTNSGDQDDKYDSTSDDSNFLSVPRGWDRPAPGHRTFETKEQPEYDSTDGEGDWSLWSVCSVTCGNGNQKRTRSCGYACIATESRTCDRPNCPGIEDTFRTAATEVSLLAGSEEFNATKLFEVDMDSCERWMSCKSEFLKKYMHKVINDLPSCPCSYPTEVAYSTADIFDRIKRKDFRWKDASGPKEKLEIYKPTARYCIRSMLSLESTTLAAQHCCYGDNMQLITRGKGAGTPNLISTEFSAELHYKVDVLPWIICKGDWSRYNEARPPNNGQKCTESPSDEDYIKQFQEAREYLEHHHHHH
notes: also called mouse rISM1
binding result: binds
